Results on 3 molecules are retold here after PMC8188256 (Data in Brief, 2021).

The target of experiment [1] is PfHsp70–1LS (Plasmodium falciparum). In words: SPR.
The target of experiment [2] is PfHsp70-zLS (Plasmodium falciparum). In words: SPR.
The target of experiment [3] is PfHsp70–1 (Plasmodium falciparum). In words: SPR.
Experiment [4] concerns the target Plasmodium falciparum Hsp110 (PfHsp70-z) (Plasmodium falciparum). In words: SPR.
The target of another experiment is DnaK (Escherichia coli, UniProt P0A6Y8). In words: biochemical.
In a further experiment the target is DnaKLS (E. coli) (UniProt P0A6Y8). In words: SPR.

Several values for one entry are separate records, joined by “and”; a condition that tells them apart may be missing. Identical values can stand only once.

Chain of DnaJ (P08622 whole entry): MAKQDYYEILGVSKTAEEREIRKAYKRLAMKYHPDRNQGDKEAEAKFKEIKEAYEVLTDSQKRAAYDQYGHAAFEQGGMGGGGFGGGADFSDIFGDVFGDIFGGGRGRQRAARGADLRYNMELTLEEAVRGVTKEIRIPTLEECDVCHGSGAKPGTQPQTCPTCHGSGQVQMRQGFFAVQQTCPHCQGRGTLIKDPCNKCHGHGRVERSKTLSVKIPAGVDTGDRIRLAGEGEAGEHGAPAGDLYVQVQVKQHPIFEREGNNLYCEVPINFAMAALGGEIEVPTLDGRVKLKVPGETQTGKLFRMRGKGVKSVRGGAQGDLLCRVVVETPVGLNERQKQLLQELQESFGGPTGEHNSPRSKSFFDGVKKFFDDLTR
Chain of DnaK (P0A6Y8 2-638): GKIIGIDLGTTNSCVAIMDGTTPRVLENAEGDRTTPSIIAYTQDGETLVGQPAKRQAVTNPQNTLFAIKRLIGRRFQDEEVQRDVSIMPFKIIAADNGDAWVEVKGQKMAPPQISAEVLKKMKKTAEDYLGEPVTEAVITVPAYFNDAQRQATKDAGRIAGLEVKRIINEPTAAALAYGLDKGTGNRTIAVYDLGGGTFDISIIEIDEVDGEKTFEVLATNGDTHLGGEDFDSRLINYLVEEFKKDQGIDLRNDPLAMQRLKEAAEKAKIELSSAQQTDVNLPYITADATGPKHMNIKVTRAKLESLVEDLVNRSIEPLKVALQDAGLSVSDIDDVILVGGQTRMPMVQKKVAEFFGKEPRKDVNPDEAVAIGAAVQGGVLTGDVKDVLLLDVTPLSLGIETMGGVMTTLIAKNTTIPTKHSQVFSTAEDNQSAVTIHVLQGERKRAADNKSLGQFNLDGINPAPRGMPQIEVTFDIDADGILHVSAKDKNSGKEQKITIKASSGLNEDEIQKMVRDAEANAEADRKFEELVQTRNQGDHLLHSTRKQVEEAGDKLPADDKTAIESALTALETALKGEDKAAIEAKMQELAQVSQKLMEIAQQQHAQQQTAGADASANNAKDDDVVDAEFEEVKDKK

For PfHsp40 (natural protein), the kon in experiment [1] was 6040 M⁻¹ s⁻¹ and 2200 M⁻¹ s⁻¹ and 6140 M⁻¹ s⁻¹; in experiment [2], 9020 M⁻¹ s⁻¹ and 6170 M⁻¹ s⁻¹ and 7250 M⁻¹ s⁻¹. Also, the koff in experiment [3] was 0.0815 s⁻¹ and 0.0866 s⁻¹ and 0.0361 s⁻¹; in experiment [4], 0.0713 s⁻¹ and 0.0396 s⁻¹ and 0.0369 s⁻¹.
For the molecule `Nc1ncnc2c1ncn2[C@@H]1O[C@H](COP(=O)(O)OP(=O)(O)OP(=O)(O)O)[C@@H](O)[C@H]1O` [ATP], the Kd at DnaK stood at 398 nM.
As for “DnaJ (from UniProt P08622 1-376) (natural protein)”, the koff with DnaKLS (E. coli) is 0.0676 s⁻¹ and 0.0732 s⁻¹ and 0.0522 s⁻¹.
